Molecular target: purified 206 kDa rFn (recombinant fibronectin) (UniProt P02751)
Assay: SPR; Biacore T200, 25°C; rFn immobilised on CM5 chip at 8000 RU; rRlpA (0.016-0.500 μM) injected at 30 μl/min in 10 mM Hepes pH 7.4, 150 mM NaCl, 3 mM EDTA, 0.05% P20; 1:1 Langmuir model

purified 206 kDa rFn (recombinant fibronectin), sequence (P02751 32-2477): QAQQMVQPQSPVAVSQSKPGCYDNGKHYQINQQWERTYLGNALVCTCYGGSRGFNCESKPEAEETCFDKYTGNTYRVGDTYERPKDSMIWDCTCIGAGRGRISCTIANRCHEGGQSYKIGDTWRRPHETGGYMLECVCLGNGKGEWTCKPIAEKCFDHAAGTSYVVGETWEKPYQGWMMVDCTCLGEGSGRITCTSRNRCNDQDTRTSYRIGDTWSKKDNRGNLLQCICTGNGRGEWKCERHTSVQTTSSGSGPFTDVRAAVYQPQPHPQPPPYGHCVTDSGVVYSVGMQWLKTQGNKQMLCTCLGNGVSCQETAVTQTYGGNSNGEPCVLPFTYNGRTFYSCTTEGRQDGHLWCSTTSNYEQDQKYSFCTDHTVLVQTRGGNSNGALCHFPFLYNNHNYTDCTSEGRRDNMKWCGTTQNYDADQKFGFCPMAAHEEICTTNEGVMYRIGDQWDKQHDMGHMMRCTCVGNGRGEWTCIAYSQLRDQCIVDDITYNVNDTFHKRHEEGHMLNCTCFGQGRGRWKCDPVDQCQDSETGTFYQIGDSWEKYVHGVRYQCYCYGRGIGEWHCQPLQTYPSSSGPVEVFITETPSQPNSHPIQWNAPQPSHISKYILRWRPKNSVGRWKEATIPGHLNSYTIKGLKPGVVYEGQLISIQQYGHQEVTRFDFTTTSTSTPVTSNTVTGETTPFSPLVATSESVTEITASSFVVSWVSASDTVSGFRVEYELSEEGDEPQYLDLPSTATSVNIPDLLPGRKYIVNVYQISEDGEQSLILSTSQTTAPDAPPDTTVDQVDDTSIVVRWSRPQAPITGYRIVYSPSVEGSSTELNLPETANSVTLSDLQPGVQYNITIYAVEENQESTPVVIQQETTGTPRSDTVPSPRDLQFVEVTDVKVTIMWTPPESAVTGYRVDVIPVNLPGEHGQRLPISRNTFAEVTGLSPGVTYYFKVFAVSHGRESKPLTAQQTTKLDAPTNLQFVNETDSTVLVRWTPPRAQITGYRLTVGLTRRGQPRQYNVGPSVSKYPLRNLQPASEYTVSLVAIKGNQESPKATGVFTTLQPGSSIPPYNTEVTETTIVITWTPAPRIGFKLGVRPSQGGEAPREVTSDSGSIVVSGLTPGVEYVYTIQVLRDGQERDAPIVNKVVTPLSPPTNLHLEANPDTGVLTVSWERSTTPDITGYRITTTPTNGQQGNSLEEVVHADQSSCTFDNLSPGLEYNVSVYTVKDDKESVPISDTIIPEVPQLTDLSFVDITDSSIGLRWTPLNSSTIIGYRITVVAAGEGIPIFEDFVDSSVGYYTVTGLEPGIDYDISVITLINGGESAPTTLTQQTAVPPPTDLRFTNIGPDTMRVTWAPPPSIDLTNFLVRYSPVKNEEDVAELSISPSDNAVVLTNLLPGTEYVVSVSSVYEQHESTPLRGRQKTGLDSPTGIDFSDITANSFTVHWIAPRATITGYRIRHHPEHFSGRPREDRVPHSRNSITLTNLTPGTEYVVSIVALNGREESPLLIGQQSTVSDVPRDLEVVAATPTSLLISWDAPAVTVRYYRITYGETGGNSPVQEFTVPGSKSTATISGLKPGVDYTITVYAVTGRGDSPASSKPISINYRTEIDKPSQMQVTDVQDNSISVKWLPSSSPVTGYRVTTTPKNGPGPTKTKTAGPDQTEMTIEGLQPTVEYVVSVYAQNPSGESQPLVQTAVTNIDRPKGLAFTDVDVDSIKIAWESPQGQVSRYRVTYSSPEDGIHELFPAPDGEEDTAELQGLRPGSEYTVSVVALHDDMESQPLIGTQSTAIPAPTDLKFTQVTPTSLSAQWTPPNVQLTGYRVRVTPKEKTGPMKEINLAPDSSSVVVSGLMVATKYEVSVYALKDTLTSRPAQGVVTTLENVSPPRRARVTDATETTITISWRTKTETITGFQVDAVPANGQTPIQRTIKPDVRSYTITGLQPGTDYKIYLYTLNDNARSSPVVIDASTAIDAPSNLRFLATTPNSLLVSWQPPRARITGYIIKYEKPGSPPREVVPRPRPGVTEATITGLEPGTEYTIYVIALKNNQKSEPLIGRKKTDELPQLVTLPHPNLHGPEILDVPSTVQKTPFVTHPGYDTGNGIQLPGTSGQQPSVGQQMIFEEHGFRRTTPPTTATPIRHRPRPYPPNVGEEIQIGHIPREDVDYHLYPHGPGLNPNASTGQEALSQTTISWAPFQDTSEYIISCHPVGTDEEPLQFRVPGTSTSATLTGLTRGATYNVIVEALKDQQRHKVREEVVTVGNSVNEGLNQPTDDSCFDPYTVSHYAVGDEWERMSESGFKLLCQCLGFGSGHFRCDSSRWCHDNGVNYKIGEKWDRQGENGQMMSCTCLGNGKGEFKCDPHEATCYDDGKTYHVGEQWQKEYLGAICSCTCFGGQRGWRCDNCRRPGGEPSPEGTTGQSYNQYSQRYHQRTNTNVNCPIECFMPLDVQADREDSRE

Substance: GST-tagged RlpA recombinant protein (rare lipoprotein A of Glaesserella parasuis serotype 4) (natural protein; other documents disagree on this pair)
- Kd: 1.6 nM

— paper PMC11392263
